The data set deals with the molecule itself. Put plainly: crystal structure; PleD 5 mg/mL with 0.5 µM c-di-GMP and 5 mM ppGpp or pppGpp; sitting-drop vapor diffusion at 19°C; space group P6(1)22, 4 molecules per asymmetric unit; 2.9 Å (ppGpp) and 3 Å (pppGpp).

B1: PleD diguanylate cyclase from Caulobacter crescentus (enzyme)
chain: MSARILVVDDIEANVRLLEAKLTAEYYEVSTAMDGPTALAMAARDLPDIILLDVMMPGMDGFTVCRKLKDDPTTRHIPVVLITALDGRGDRIQGLESGASDFLTKPIDDVMLFARVRSLTRFKLVIDELRQREASGRRMGVIAGAAARLDGLGGRVLIVDDNERQAQRVAAELGVEHRPVIESDPEKAKISAGGPVDLVIVNAAAKNFDGLRFTAALRSEERTRQLPVLAMVDPDDRGRMVKALEIGVNDILSRPIDPQELSARVKTQIQRKRYTDYLRNNLDHSLELAVTDQLTGLHNRRYMTGQLDSLVKRATLGGDPVSALLIDIDFFKKINDTFGHDIGDEVLREFALRLASNVRAIDLPCRYGGEEFVVIMPDTALADALRIAERIRMHVSGSPFTVAHGREMLNVTISIGVSATAGEGDTPEALLKRADEGVYQAKASGRNAVVGKAA
notes: PleD, response regulator and diguanylate cyclase of Caulobacter crescentus (receiver domain D1, adaptor domain D2, DGC domain); expressed from pET11b-pleD; In the crystals each monomer carries two c-di-GMP at the I-site, and one (p)ppGpp and a Mg2+ in the active site; also called PleDCC; source: E. coli BL21(DE3), purified (Ni-NTA, SEC)
As to B1, the binding result is recorded as “binds”.

These data come from article doi:10.1101/2025.08.22.671821, “Cross-regulation of (p)ppGpp and c-di-GMP pathways controls a cell-cycle transition” (bioRxiv, 2025).
